Legend:
- = assay: BLI; Figure 25B
[1] = molecular target: human VISTA polypeptide (ELISA coat) (UniProt Q9H7M9 33-194); assay: ELISA
[2] = molecular target: T1, cynomolgus macaque VISTA polypeptide (ELISA coat) (cynomolgus macaque, UniProt A0A7N9IB00 33-194); assay: ELISA
T1 chain: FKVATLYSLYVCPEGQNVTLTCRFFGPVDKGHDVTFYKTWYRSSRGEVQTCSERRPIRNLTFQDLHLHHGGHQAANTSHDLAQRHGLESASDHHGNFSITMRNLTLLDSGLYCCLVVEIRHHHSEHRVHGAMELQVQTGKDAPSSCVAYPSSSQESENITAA

B1: mFcγRIII (receptor)
chain: ALPKAVVKLDPPWIQVLKEDMVTLMCEGTHNPGNSSTQWFHNGRSIRSQVQASYTFKATVNDSGEYRCQMEQTRLSDPVDLGVISDWLLLQTPQRVFLEGETITLRCHSWRNKLLNRISFFHNEKSVRYHHYKSNFSIPKANHSHSGDYYCKGSLGSTQHQSKPVTITVQDPATTSSISLVWYHT
**Q.** B1 was tested. Which Kd (-) did it give?
**A.** 455 nM

B2: anti-VISTA clone 4M2-C12 IgG1 (antibody)
heavy: not shown
light: DIVITQTPAILSTSPGEKVTMTCRASSSVGYIHWYQQKPGSSPKPWIYATSNLASGVPARFSGSGSGTSNSLTITRVEAEDAATYYCQQWSSYPPITFGGGTKLEVKRTVAAPSVFIFPPSDEQLKSGTASVVCLLNNFYPREAKVQWKVDNALQSGNSQESVTEQDSKDSTYSLSSTLTLSKADYEKHKVYACEVTHQGLSSPVTKSFNRGEC
**Q.** Which EC50 [1] does the source give for B2 here?
**A.** 0.246 nM

B3: VSTB112 IgG1 (antibody, V domains shown)
VH: QVQLVQSGAEVKKPGSSVKVSCKASGGTFSSYAISWVRQAPGQGLEWMGGIIPIFGTANYAQKFQGRVTITADESTSTAYMELSSLRSEDTAVYYCARSSYGWSYEFDYWGQGTLVTVSS
VL: DIQMTQSPSSLSASVGDRVTITCRASQSIDTRLNWYQQKPGKAPKLLIYSASSLQSGVPSRFSGSGSGTDFTLTISSLQPEDFATYYCQQSAYNPITFGQGTKVEIKR
**Q.** How did the EC50 [2] turn out when B3 was run?
**A.** 0.0052 nM

From patent publication US20190300610A1 (published 2019)
